Values belong to the binder of their own block, whether it stands above or below them.
B2: C-terminal His6-tagged human Bak (residues 23–185;C166S) (domain or fragment, UniProt Q16611 23-185, looked up)
chain: SEEQVAQDTEEVFRSYVFYRHQQEQEAEGVAAPADPEMVTLPLQPSSTMGQVGRQLAIIGDDINRRYDSEFQTMLQHLQPTAENAYEYFTKIATSLFESGINWGRVVALLGFGYRLALHVYQHGLTGFLGQVTRFVVDFMLHHSIARWIAQRGGWVAALNLGN
notes: also called recombinant Bak; source: E. coli BL21(DE3) RIL, purified (Ni-NTA, Superdex 75 gel filtration); not shown: His6, C-terminal, kept

Columns and labels:
[1] = molecular target: T1, recombinant human Bax (residues 1–172;C62S·C126S) (human, UniProt Q07812 1-172, C62S | C126S); assay: SEC; separately purified proteins mixed at a molar ratio of 1:3, incubated for 1 h; Superdex 200 increase 10/300 GL; no detergent; peak fractions on SDS–PAGE; conditions: both partners purified
T1 construct: Bax, human, residues 1-172 with C62S and C126S, cloned into pET21a-m1; also called recombinant Bax; source: E. coli BL21(DE3) RIL, purified (Ni-NTA, Superdex 75 gel filtration)
T1 sequence (Q07812 1-172 C62S/C126S): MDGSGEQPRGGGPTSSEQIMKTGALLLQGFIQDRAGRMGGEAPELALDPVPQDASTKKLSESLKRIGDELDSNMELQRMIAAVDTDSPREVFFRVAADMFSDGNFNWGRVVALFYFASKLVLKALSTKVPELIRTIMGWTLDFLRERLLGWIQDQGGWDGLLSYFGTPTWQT

[2] = molecular target: the molecule itself; assay: SEC; 100 μM Bak, 1 mM Pxt1 BH3 peptide and 1% CHAPS; Superdex 75 10/300 GL
[3] = molecular target: B2; assay: ITC; Pxt1 peptide (0.8 mM) titrated into 80 μM recombinant Bak; no detergent; performed as in ref. 27; conditions: both partners purified

binding result [1]: binds
B1: human Pxt1(76–101) BH3 fragment, separately purified, as mixed with recombinant Bax (peptide, UniProt Q8NFP0 76-101, looked up)
chain: EEIIHKLAMQLRHIGDNIDHRMVRED
notes: Pxt1, human, BH3 domain, residues 76-101, cloned into pET21a-m2; it is surmised to be the recombinant pET21a-m2 product and not the synthetic peptide; also called Pxt1 BH3 fragment; human Pxt1 BH3 domain; source: separately purified (the recombinant construct was made in E. coli BL21(DE3) RIL)

Binder: B2
stoichiometry N [2]: 2

Kd [3]: 15.4 µM
B3: synthetic human Pxt1(76–101) peptide (peptide, UniProt Q8NFP0 76-101, looked up)
peptide: EEIIHKLAMQLRHIGDNIDHRMVRED
notes: Pxt1, human, residues 76-101; also called human Pxt1 BH3; Pxt1 BH3 peptide; source: synthetic peptide (Peptron, Korea)

From paper PMC10298792, “Structural basis for proapoptotic activation of Bak by the noncanonical BH3-only protein Pxt1” (PLOS Biology, 2023)
